B1: ZNF24 (parent)
chain: THTKEQILELVVLEQFVAILPKEL
B2: MFF (parent)
chain: YTEGISQRMRVPEKLKVAPPNADL

Variants of: B1
Assay: protein stability index of a GFP-peptide fusion (GPS, HEK-293T) (PSI 1-6); higher = more stable
Conditions: c terminus: a fixed tail appended
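Further: lentivirally expressed fusions sorted by FACS into six bins by GFP to DsRed ratio, PSI derived from sequencing read proportions per bin multiplied by bin number.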

Question: For THTKEQILELVVLEQFVAILPPEL [K22P], which protein stability index is on record?
Answer: 2.18

Question: Which protein stability index does the source give for THTKEQIYELVVLEQFVAILPKEL [L8Y] here?
Answer: 2.66

Question: For THTKEQINELVVLEQFVAILPKEL [L8N], which protein stability index is on record?
Answer: 1.57

Question: Which protein stability index does the source give for THTKEQIDELVVLEQFVAILPKEL [L8D] here?
Answer: 2.52

Question: With THTKEQIPELVVLEQFVAILPKEL [L8P] as the variant, how does the protein stability index read?
Answer: 2.16

Question: For THTKEQILELMVLEQFVAILPKEL [V11M], which protein stability index is on record?
Answer: 2.6

Question: With THTKEQILELVVLEQFVAITPKEL [L20T] as the variant, how does the protein stability index read?
Answer: 2.44

Question: For THTKEQILELVVLEQFVAIVPKEL [L20V], which protein stability index is on record?
Answer: 2.19

Question: Which protein stability index does the source give for THTKEQILELVVLEQFVAIWPKEL [L20W] here?
Answer: 4.08

Question: For THTKEQILELVVLEQFVAIHPKEL [L20H], which protein stability index is on record?
Answer: 1.67

Question: With THTKEQILELVVLEQFVAILCKEL [P21C] as the variant, how does the protein stability index read?
Answer: 3.76

Question: For THTKEQILELVVLEQFVAILDKEL [P21D], which protein stability index is on record?
Answer: 4.16

Question: With THTKEQILELVVLEQFVAILFKEL [P21F] as the variant, how does the protein stability index read?
Answer: 1.92

Question: Which protein stability index does the source give for THTKEQILELVVLEQFVAILTKEL [P21T] here?
Answer: 2.57

Question: Which protein stability index does the source give for LHTKEQILELVVLEQFVAILPKEL [T1L] here?
Answer: 1.56

Question: With WHTKEQILELVVLEQFVAILPKEL [T1W] as the variant, how does the protein stability index read?
Answer: 2.72

Question: Which protein stability index does the source give for THTIEQILELVVLEQFVAILPKEL [K4I] here?
Answer: 3.38

Question: With THTYEQILELVVLEQFVAILPKEL [K4Y] as the variant, how does the protein stability index read?
Answer: 2.51

Question: For THTKEPILELVVLEQFVAILPKEL [Q6P], which protein stability index is on record?
Answer: 4

Question: For THTKENILELVVLEQFVAILPKEL [Q6N], which protein stability index is on record?
Answer: 2.52

Question: Which protein stability index does the source give for THTKEQILELVVLEQFRAILPKEL [V17R] here?
Answer: 1.66

Question: Which protein stability index does the source give for THTKEQILELVVLEQFDAILPKEL [V17D] here?
Answer: 1.71

Question: With THTKEQILELVVLEQFWAILPKEL [V17W] as the variant, how does the protein stability index read?
Answer: 2.19

Question: With THTKEQILELVVLEQFMAILPKEL [V17M] as the variant, how does the protein stability index read?
Answer: 2.31

Question: With THTKEQILELVVLEQFAAILPKEL [V17A] as the variant, how does the protein stability index read?
Answer: 3.14

Question: With THTKEQILELVVMEQFVAILPKEL [L13M] as the variant, how does the protein stability index read?
Answer: 2.18

Question: For THTKEQILELVVYEQFVAILPKEL [L13Y], which protein stability index is on record?
Answer: 2.88

Question: With THTKEQILELVVLLQFVAILPKEL [E14L] as the variant, how does the protein stability index read?
Answer: 2.05

Question: For THTKEQILELVCLEQFVAILPKEL [V12C], which protein stability index is on record?
Answer: 2.23

Question: For THTKEQILELVNLEQFVAILPKEL [V12N], which protein stability index is on record?
Answer: 2.14

Question: For TPTKEQILELVVLEQFVAILPKEL [H2P], which protein stability index is on record?
Answer: 1.76

Question: Which protein stability index does the source give for THTKEQILEVVVLEQFVAILPKEL [L10V] here?
Answer: 2.5

Question: For THTKEQILEAVVLEQFVAILPKEL [L10A], which protein stability index is on record?
Answer: 2.28

Question: Which protein stability index does the source give for THTKEQILELVVLEIFVAILPKEL [Q15I] here?
Answer: 2.87

Question: Which protein stability index does the source give for THTKEQILELVVLEMFVAILPKEL [Q15M] here?
Answer: 2.63

Question: For THTKEQILELVVLEWFVAILPKEL [Q15W], which protein stability index is on record?
Answer: 2.82

Question: Which protein stability index does the source give for THCKEQILELVVLEQFVAILPKEL [T3C] here?
Answer: 1.53

Question: For THQKEQILELVVLEQFVAILPKEL [T3Q], which protein stability index is on record?
Answer: 2.81

Question: Which protein stability index does the source give for THEKEQILELVVLEQFVAILPKEL [T3E] here?
Answer: 3.23

Question: Which protein stability index does the source give for THYKEQILELVVLEQFVAILPKEL [T3Y] here?
Answer: 3.59

Question: Which protein stability index does the source give for THTKEQILELVVLEQFVNILPKEL [A18N] here?
Answer: 2.67

Question: Which protein stability index does the source give for THTKEQILELVVLEQFVDILPKEL [A18D] here?
Answer: 2.32

Question: With THTKEQILELVVLEQFVEILPKEL [A18E] as the variant, how does the protein stability index read?
Answer: 2.1

Question: Which protein stability index does the source give for THTKEQELELVVLEQFVAILPKEL [I7E] here?
Answer: 2.55

Question: For THTKEQILYLVVLEQFVAILPKEL [E9Y], which protein stability index is on record?
Answer: 3.52

Question: Which protein stability index does the source give for THTKEQILELVVLEQFVAQLPKEL [I19Q] here?
Answer: 2.01

Question: With THTKEQILELVVLEQFVADLPKEL [I19D] as the variant, how does the protein stability index read?
Answer: 1.77

Question: For THTKEQILELVVLEQFVAALPKEL [I19A], which protein stability index is on record?
Answer: 1.98

Question: For THTKIQILELVVLEQFVAILPKEL [E5I], which protein stability index is on record?
Answer: 3.67

Question: For THTKYQILELVVLEQFVAILPKEL [E5Y], which protein stability index is on record?
Answer: 2.01

Question: Which protein stability index does the source give for THTKEQILELVVLEQFVAILPKTL [E23T] here?
Answer: 1.75

Question: For THTKEQILELVVLEQFVAILPKML [E23M], which protein stability index is on record?
Answer: 3.72

Question: With THTKEQILELVVLEQFVAILPKVL [E23V] as the variant, how does the protein stability index read?
Answer: 2.76

Variants of: B2
Assay: as above
Conditions: c terminus: a fixed tail appended

Question: Which protein stability index does the source give for YTEGISNRMRVPEKLKVAPPNADL [Q7N] here?
Answer: 2.74

Question: Which protein stability index does the source give for YTEGISFRMRVPEKLKVAPPNADL [Q7F] here?
Answer: 1.82

Question: For YTEGISGRMRVPEKLKVAPPNADL [Q7G], which protein stability index is on record?
Answer: 2.65

Question: With YTEGISARMRVPEKLKVAPPNADL [Q7A] as the variant, how does the protein stability index read?
Answer: 2.97

Question: With YTEGISRRMRVPEKLKVAPPNADL [Q7R] as the variant, how does the protein stability index read?
Answer: 2.81

Question: Which protein stability index does the source give for YTEGISIRMRVPEKLKVAPPNADL [Q7I] here?
Answer: 2.85

Question: Which protein stability index does the source give for YTEGISHRMRVPEKLKVAPPNADL [Q7H] here?
Answer: 1.81

Question: With YTEGISTRMRVPEKLKVAPPNADL [Q7T] as the variant, how does the protein stability index read?
Answer: 2.71

Question: With YTEGISYRMRVPEKLKVAPPNADL [Q7Y] as the variant, how does the protein stability index read?
Answer: 1.75

Question: Which protein stability index does the source give for YTEGISCRMRVPEKLKVAPPNADL [Q7C] here?
Answer: 2.9

Question: For YTEGISVRMRVPEKLKVAPPNADL [Q7V], which protein stability index is on record?
Answer: 3.21

Question: With YTEGISERMRVPEKLKVAPPNADL [Q7E] as the variant, how does the protein stability index read?
Answer: 3.26

Question: For YTEGISDRMRVPEKLKVAPPNADL [Q7D], which protein stability index is on record?
Answer: 3.43

Question: With YTEGISLRMRVPEKLKVAPPNADL [Q7L] as the variant, how does the protein stability index read?
Answer: 2.77

Question: For YTEGISPRMRVPEKLKVAPPNADL [Q7P], which protein stability index is on record?
Answer: 3.4

Question: Which protein stability index does the source give for YTEGISKRMRVPEKLKVAPPNADL [Q7K] here?
Answer: 2.39

Question: Which protein stability index does the source give for YTEGISSRMRVPEKLKVAPPNADL [Q7S] here?
Answer: 2.45

Question: With YTEGISMRMRVPEKLKVAPPNADL [Q7M] as the variant, how does the protein stability index read?
Answer: 2.59

Question: For YTEGISWRMRVPEKLKVAPPNADL [Q7W], which protein stability index is on record?
Answer: 2.21

Question: For YTEGKSQRMRVPEKLKVAPPNADL [I5K], which protein stability index is on record?
Answer: 4.18

Question: For YTEGWSQRMRVPEKLKVAPPNADL [I5W], which protein stability index is on record?
Answer: 2.75

Question: With YTEGASQRMRVPEKLKVAPPNADL [I5A] as the variant, how does the protein stability index read?
Answer: 4.19

Question: For YTEGFSQRMRVPEKLKVAPPNADL [I5F], which protein stability index is on record?
Answer: 2.13

Question: Which protein stability index does the source give for YTEGRSQRMRVPEKLKVAPPNADL [I5R] here?
Answer: 3.78

Question: Which protein stability index does the source give for YTEGESQRMRVPEKLKVAPPNADL [I5E] here?
Answer: 4.78

Question: Which protein stability index does the source give for YTEGQSQRMRVPEKLKVAPPNADL [I5Q] here?
Answer: 4.44

Question: With YTEGSSQRMRVPEKLKVAPPNADL [I5S] as the variant, how does the protein stability index read?
Answer: 4.16

Question: Which protein stability index does the source give for YTEGLSQRMRVPEKLKVAPPNADL [I5L] here?
Answer: 3.06

Question: For YTEGNSQRMRVPEKLKVAPPNADL [I5N], which protein stability index is on record?
Answer: 4.03

Question: Which protein stability index does the source give for YTEGHSQRMRVPEKLKVAPPNADL [I5H] here?
Answer: 3.81

Question: For YTEGYSQRMRVPEKLKVAPPNADL [I5Y], which protein stability index is on record?
Answer: 2.41

Question: With YTEGMSQRMRVPEKLKVAPPNADL [I5M] as the variant, how does the protein stability index read?
Answer: 3.4

Question: For YTEGCSQRMRVPEKLKVAPPNADL [I5C], which protein stability index is on record?
Answer: 4.16

Question: With YTEGTSQRMRVPEKLKVAPPNADL [I5T] as the variant, how does the protein stability index read?
Answer: 3.9

Question: With YTEGGSQRMRVPEKLKVAPPNADL [I5G] as the variant, how does the protein stability index read?
Answer: 3.72

Question: With YTEGDSQRMRVPEKLKVAPPNADL [I5D] as the variant, how does the protein stability index read?
Answer: 4.55

Question: With YTEGVSQRMRVPEKLKVAPPNADL [I5V] as the variant, how does the protein stability index read?
Answer: 3.63

Question: For YTEGPSQRMRVPEKLKVAPPNADL [I5P], which protein stability index is on record?
Answer: 4.33

Question: For YTEGIPQRMRVPEKLKVAPPNADL [S6P], which protein stability index is on record?
Answer: 2.29

Question: For YTEGITQRMRVPEKLKVAPPNADL [S6T], which protein stability index is on record?
Answer: 2.98

Question: For YTEGIYQRMRVPEKLKVAPPNADL [S6Y], which protein stability index is on record?
Answer: 3.1
